{"source": "paper PMC9482650", "about": "“Quantitative fragmentomics allow affinity mapping of interactomes” (Nature Communications, 2022)"}
{"biological_target": "DLG2_2, Q15700", "sequence (Q15700 189-283)": "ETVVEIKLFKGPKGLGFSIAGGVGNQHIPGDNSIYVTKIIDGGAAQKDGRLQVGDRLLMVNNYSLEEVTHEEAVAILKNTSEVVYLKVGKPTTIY", "assay": "holdup assay", "parameters": "key: below the threshold = too weak to quantify, mostly under pKd 3.1 to 4", "settings": "plain residues with an end cap or a label only (N-terminal biotin on a linker: ado-ado)"}
{"binder": "VYEVPVETKF", "note": "[SLC26A3, P40879]", "pKd": "below the threshold"}
{"biological_target": "T1, SNTG2, Q9NY99", "T1 sequence (Q9NY99 68-166, limits assumed, looked up)": "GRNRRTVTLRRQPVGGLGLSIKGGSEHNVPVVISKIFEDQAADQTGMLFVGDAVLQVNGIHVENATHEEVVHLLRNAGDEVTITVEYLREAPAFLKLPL", "assay": "holdup assay", "parameters": "key: below the threshold = too weak to quantify, mostly under pKd 3.1 to 4", "settings": "plain residues with an end cap or a label only (N-terminal biotin on a linker: ado-ado)"}
{"binder": "VYEVPVETKF", "note": "[SLC26A3, P40879]", "pKd": "below the threshold"}
{"biological_target": "SCRIB_2, Q14160", "sequence (Q14160 857-960)": "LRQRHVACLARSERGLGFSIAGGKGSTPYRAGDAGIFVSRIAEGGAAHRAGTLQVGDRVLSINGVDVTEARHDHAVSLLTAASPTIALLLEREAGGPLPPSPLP", "assay": "holdup assay", "parameters": "key: below the threshold = too weak to quantify, mostly under pKd 3.1 to 4", "settings": "plain residues with an end cap or a label only (N-terminal biotin on a linker: ado-ado)"}
{"binder": "VYEVPVETKF", "note": "[SLC26A3, P40879]", "pKd": 3.67}
{"biological_target": "DLG1_3, Q12959", "sequence (Q12959 457-571)": "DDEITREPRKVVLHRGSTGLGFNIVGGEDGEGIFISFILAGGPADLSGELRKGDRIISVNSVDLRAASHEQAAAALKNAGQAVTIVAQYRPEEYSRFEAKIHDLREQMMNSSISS", "assay": "holdup assay", "parameters": "key: below the threshold = too weak to quantify, mostly under pKd 3.1 to 4", "settings": "plain residues with an end cap or a label only (N-terminal biotin on a linker: ado-ado)"}
{"binder": "VYEVPVETKF", "note": "[SLC26A3, P40879]", "pKd": 3.6}
{"biological_target": "T2, TIAM2, Q8IVF5", "T2 sequence (Q8IVF5 885-986, limits assumed, looked up)": "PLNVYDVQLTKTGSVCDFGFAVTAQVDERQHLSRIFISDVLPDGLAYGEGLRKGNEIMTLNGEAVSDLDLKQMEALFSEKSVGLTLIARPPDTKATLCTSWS", "assay": "holdup assay", "parameters": "key: below the threshold = too weak to quantify, mostly under pKd 3.1 to 4", "settings": "plain residues with an end cap or a label only (N-terminal biotin on a linker: ado-ado)"}
{"binder": "VYEVPVETKF", "note": "[SLC26A3, P40879]", "pKd": 3.98}
{"biological_target": "T3, APBA3_1, O96018", "T3 sequence (O96018 389-490, limits assumed, looked up)": "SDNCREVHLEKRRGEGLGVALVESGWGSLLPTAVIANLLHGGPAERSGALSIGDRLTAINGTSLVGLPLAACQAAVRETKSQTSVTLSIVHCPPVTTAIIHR", "assay": "holdup assay", "parameters": "key: below the threshold = too weak to quantify, mostly under pKd 3.1 to 4", "settings": "plain residues with an end cap or a label only (N-terminal biotin on a linker: ado-ado)"}
{"binder": "VYEVPVETKF", "note": "[SLC26A3, P40879]", "pKd": "below the threshold"}
{"biological_target": "Inadl_6, Q8NI35", "sequence (Q8NI35 1058-1167)": "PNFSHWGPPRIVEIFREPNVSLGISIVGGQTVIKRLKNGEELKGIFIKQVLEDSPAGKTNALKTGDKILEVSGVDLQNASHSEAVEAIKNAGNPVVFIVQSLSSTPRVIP", "assay": "holdup assay", "parameters": "key: below the threshold = too weak to quantify, mostly under pKd 3.1 to 4", "settings": "plain residues with an end cap or a label only (N-terminal biotin on a linker: ado-ado)"}
{"binder": "VYEVPVETKF", "note": "[SLC26A3, P40879]", "pKd": "below the threshold"}
{"biological_target": "T4, ARHGEF11, O15085", "T4 sequence (O15085 42-136, limits assumed, looked up)": "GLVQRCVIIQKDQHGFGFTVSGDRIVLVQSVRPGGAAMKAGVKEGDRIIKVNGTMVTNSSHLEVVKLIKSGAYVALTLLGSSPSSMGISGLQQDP", "assay": "holdup assay", "parameters": "key: below the threshold = too weak to quantify, mostly under pKd 3.1 to 4", "settings": "plain residues with an end cap or a label only (N-terminal biotin on a linker: ado-ado)"}
{"binder": "VYEVPVETKF", "note": "[SLC26A3, P40879]", "pKd": 3.62}
{"biological_target": "LNX1_3, Q8TBB1", "sequence (Q8TBB1 500-596)": "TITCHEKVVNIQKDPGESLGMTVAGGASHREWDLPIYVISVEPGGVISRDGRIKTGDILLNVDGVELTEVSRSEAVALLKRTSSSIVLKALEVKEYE", "assay": "holdup assay", "parameters": "key: below the threshold = too weak to quantify, mostly under pKd 3.1 to 4", "settings": "plain residues with an end cap or a label only (N-terminal biotin on a linker: ado-ado)"}
{"binder": "VYEVPVETKF", "note": "[SLC26A3, P40879]", "pKd": "below the threshold"}
{"biological_target": "SNX27, Q96L92", "assay": "holdup assay", "parameters": "key: below the threshold = too weak to quantify, mostly under pKd 3.1 to 4", "settings": "plain residues with an end cap or a label only (N-terminal biotin on a linker: ado-ado)"}
{"binder": "VYEVPVETKF", "note": "[SLC26A3, P40879]", "pKd": 5.33}
{"biological_target": "T5, HTRA4, P83105", "T5 sequence (P83105 378-476, limits assumed, looked up)": "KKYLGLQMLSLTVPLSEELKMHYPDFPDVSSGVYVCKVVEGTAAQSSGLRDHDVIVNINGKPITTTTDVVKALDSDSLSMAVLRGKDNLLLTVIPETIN", "assay": "holdup assay", "parameters": "key: below the threshold = too weak to quantify, mostly under pKd 3.1 to 4", "settings": "plain residues with an end cap or a label only (N-terminal biotin on a linker: ado-ado)"}
{"binder": "VYEVPVETKF", "note": "[SLC26A3, P40879]", "pKd": "below the threshold"}
{"biological_target": "LAP2, Q96RT1", "sequence (Q96RT1 other isoform, or with tags, fused parts or gaps)": "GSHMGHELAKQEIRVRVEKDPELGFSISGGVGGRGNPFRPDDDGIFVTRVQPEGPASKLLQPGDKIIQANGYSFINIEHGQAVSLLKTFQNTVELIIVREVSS", "assay": "holdup assay", "parameters": "key: below the threshold = too weak to quantify, mostly under pKd 3.1 to 4", "settings": "plain residues with an end cap or a label only (N-terminal biotin on a linker: ado-ado)"}
{"binder": "VYEVPVETKF", "note": "[SLC26A3, P40879]", "pKd": "below the threshold"}
{"biological_target": "T6, NHERF3_4, Q5T2W1", "T6 sequence (Q5T2W1 373-468, limits assumed, looked up)": "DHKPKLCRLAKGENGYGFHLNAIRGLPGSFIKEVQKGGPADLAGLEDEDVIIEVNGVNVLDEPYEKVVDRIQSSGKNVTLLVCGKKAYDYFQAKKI", "assay": "holdup assay", "parameters": "key: below the threshold = too weak to quantify, mostly under pKd 3.1 to 4", "settings": "plain residues with an end cap or a label only (N-terminal biotin on a linker: ado-ado)"}
{"binder": "VYEVPVETKF", "note": "[SLC26A3, P40879]", "pKd": 4.15}
{"biological_target": "T7, LNX2_3, Q8N448", "T7 sequence (Q8N448 463-564, limits assumed, looked up)": "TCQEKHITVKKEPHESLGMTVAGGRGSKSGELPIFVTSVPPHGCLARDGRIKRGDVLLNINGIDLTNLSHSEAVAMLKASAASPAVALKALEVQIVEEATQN", "assay": "holdup assay", "parameters": "key: below the threshold = too weak to quantify, mostly under pKd 3.1 to 4", "settings": "plain residues with an end cap or a label only (N-terminal biotin on a linker: ado-ado)"}
{"binder": "VYEVPVETKF", "note": "[SLC26A3, P40879]", "pKd": "below the threshold"}
{"biological_target": "TJP1_3, Q07157", "sequence (Q07157 416-512)": "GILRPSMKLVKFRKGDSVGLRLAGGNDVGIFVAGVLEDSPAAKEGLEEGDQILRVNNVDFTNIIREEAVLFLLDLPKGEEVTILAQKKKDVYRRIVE", "assay": "holdup assay", "parameters": "key: below the threshold = too weak to quantify, mostly under pKd 3.1 to 4", "settings": "plain residues with an end cap or a label only (N-terminal biotin on a linker: ado-ado)"}
{"binder": "VYEVPVETKF", "note": "[SLC26A3, P40879]", "pKd": "below the threshold"}
{"biological_target": "T8, PDZRN3_1, Q9UPQ7", "T8 sequence (Q9UPQ7 244-349, limits assumed, looked up)": "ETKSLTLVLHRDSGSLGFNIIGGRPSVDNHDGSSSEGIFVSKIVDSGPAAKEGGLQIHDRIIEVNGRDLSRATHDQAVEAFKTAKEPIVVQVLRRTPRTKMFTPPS", "assay": "holdup assay", "parameters": "key: below the threshold = too weak to quantify, mostly under pKd 3.1 to 4", "settings": "plain residues with an end cap or a label only (N-terminal biotin on a linker: ado-ado)"}
{"binder": "VYEVPVETKF", "note": "[SLC26A3, P40879]", "pKd": "below the threshold"}
{"biological_target": "AHNAK1, Q09666", "sequence (Q09666 4-100)": "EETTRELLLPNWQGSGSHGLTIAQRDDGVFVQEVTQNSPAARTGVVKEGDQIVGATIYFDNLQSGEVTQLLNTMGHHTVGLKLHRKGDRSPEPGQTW", "assay": "holdup assay", "parameters": "key: below the threshold = too weak to quantify, mostly under pKd 3.1 to 4", "settings": "plain residues with an end cap or a label only (N-terminal biotin on a linker: ado-ado)"}
{"binder": "VYEVPVETKF", "note": "[SLC26A3, P40879]", "pKd": "below the threshold"}
{"biological_target": "T9, SNTB1, Q13884", "T9 sequence (Q13884 107-205, limits assumed, looked up)": "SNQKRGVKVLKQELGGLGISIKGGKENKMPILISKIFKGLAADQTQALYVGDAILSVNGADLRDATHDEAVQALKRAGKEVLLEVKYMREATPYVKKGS", "assay": "holdup assay", "parameters": "key: below the threshold = too weak to quantify, mostly under pKd 3.1 to 4", "settings": "plain residues with an end cap or a label only (N-terminal biotin on a linker: ado-ado)"}
{"binder": "VYEVPVETKF", "note": "[SLC26A3, P40879]", "pKd": "below the threshold"}
{"biological_target": "LNX1_2, Q8TBB1", "sequence (Q8TBB1 371-470)": "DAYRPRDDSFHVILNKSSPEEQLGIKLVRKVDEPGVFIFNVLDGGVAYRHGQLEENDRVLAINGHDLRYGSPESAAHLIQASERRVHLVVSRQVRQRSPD", "assay": "holdup assay", "parameters": "key: below the threshold = too weak to quantify, mostly under pKd 3.1 to 4", "settings": "plain residues with an end cap or a label only (N-terminal biotin on a linker: ado-ado)"}
{"binder": "VYEVPVETKF", "note": "[SLC26A3, P40879]", "pKd": "below the threshold"}
{"biological_target": "FRMPD2_2, Q68DX3", "sequence (Q68DX3 944-1038)": "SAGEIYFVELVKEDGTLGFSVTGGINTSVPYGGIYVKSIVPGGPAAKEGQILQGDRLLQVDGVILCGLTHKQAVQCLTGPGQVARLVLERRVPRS", "assay": "holdup assay", "parameters": "key: below the threshold = too weak to quantify, mostly under pKd 3.1 to 4", "settings": "plain residues with an end cap or a label only (N-terminal biotin on a linker: ado-ado)"}
{"binder": "VYEVPVETKF", "note": "[SLC26A3, P40879]", "pKd": "below the threshold"}
{"biological_target": "MAGI2_4, Q86UL8", "sequence (Q86UL8 772-865)": "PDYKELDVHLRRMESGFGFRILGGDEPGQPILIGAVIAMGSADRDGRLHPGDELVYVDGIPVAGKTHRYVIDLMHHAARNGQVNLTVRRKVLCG", "assay": "holdup assay", "parameters": "key: below the threshold = too weak to quantify, mostly under pKd 3.1 to 4", "settings": "plain residues with an end cap or a label only (N-terminal biotin on a linker: ado-ado)"}
{"binder": "VYEVPVETKF", "note": "[SLC26A3, P40879]", "pKd": "below the threshold"}
{"biological_target": "T10, PDZD2_2, O15018", "T10 sequence (O15018 329-429, limits assumed, looked up)": "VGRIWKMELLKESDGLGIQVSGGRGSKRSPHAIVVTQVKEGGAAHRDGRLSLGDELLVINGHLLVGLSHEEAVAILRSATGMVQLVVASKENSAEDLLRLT", "assay": "holdup assay", "parameters": "key: below the threshold = too weak to quantify, mostly under pKd 3.1 to 4", "settings": "plain residues with an end cap or a label only (N-terminal biotin on a linker: ado-ado)"}
{"binder": "VYEVPVETKF", "note": "[SLC26A3, P40879]", "pKd": 3.72}
{"biological_target": "IL16_4, Q14005", "sequence (Q14005 1229-1329)": "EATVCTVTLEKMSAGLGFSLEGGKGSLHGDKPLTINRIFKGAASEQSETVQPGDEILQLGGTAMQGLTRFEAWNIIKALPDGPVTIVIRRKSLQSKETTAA", "assay": "holdup assay", "parameters": "key: below the threshold = too weak to quantify, mostly under pKd 3.1 to 4", "settings": "plain residues with an end cap or a label only (N-terminal biotin on a linker: ado-ado)"}
{"binder": "VYEVPVETKF", "note": "[SLC26A3, P40879]", "pKd": "below the threshold"}
{"biological_target": "Inadl_3, Q8NI35", "sequence (Q8NI35 359-469)": "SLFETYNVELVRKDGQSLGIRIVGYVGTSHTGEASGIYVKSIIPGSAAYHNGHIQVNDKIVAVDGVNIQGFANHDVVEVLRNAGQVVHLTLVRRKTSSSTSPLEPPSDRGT", "assay": "holdup assay", "parameters": "key: below the threshold = too weak to quantify, mostly under pKd 3.1 to 4", "settings": "plain residues with an end cap or a label only (N-terminal biotin on a linker: ado-ado)"}
{"binder": "VYEVPVETKF", "note": "[SLC26A3, P40879]", "pKd": "below the threshold"}
{"biological_target": "T11, LIN7C, Q9NUP9", "T11 sequence (Q9NUP9 88-185, limits assumed, looked up)": "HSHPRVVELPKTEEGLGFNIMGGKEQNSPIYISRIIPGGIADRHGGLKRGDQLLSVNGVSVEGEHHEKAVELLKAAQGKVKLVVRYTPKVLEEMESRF", "assay": "holdup assay", "parameters": "key: below the threshold = too weak to quantify, mostly under pKd 3.1 to 4", "settings": "plain residues with an end cap or a label only (N-terminal biotin on a linker: ado-ado)"}
{"binder": "VYEVPVETKF", "note": "[SLC26A3, P40879]", "pKd": 4.01}
{"biological_target": "T12, GRIP1_4, Q9Y3R0", "T12 sequence (Q9Y3R0 467-571, limits assumed, looked up)": "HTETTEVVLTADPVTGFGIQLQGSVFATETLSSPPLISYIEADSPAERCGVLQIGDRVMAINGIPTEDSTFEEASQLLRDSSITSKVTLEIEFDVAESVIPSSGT", "assay": "holdup assay", "parameters": "key: below the threshold = too weak to quantify, mostly under pKd 3.1 to 4", "settings": "plain residues with an end cap or a label only (N-terminal biotin on a linker: ado-ado)"}
{"binder": "VYEVPVETKF", "note": "[SLC26A3, P40879]", "pKd": "below the threshold"}
